According to article PMC4606454:

How the values were obtained:
[1] = target: YFP-KYP (Arabidopsis) (UniProt Q8GZB6); assay: FRET or BRET; FRET acceptor photobleaching (FRET-AB) in nuclei of N. benthamiana epidermal cells; TrAP-CFP donor, YFP-KYP acceptor; 27-30 cells per experiment
[2] = target: His-MBP-KYP (Arabidopsis) (UniProt Q8GZB6)

| Substance | FRET-AB [1] | initial velocity of KYP transmethylation of histone 3 (in vitro HMTase reconstitution with 14C-SAM; His-MBP-TrAP pre-incubated with His-GST-KYP at molar ratios 0-10); IC50 as TrAP:KYP molar ratio (TrAP:KYP molar ratio) [2] |
| --- | --- | --- |
| CaLCuV TrAP-CFP (natural protein) | 2.7 |  |
| His-GST-CaLCuV-TrAP (natural protein) |  | 2 |
| His-GST-TGMV-TrAP (natural protein) |  | 2 |
| TGMV TrAP-CFP (natural protein) | 3.82 |  |
